Data: the nanobody polyreactivity screen of Harvey et al. (2022)

Assay: yeast display, Sf9 membrane polyspecificity reagent, FACS + sequencing; frameworks hold sequencing errors
In short: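 In a synthetic yeast display library (Saccharomyces cerevisiae BJ5465), nanobody expression was induced with galactose for 36–48 hours. FACS gates were set low and high (top ~1%) using anti-HA fluorescence for expression and streptavidin fluorescence for binding of the Sf9 membrane reagent. Each polyreactivity label is drawn from the gate of origin.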

Question: Which “polyreactivity (PSR sort gate)” value does the source give for “QVQLVESGRGLVQAGGSLRLSCAASGGTFGWYAMGWYRQAPGKERELVAAISQGGGSTYYADSVKGRFTISRDNAKNTVYLQMNSLKPEDTAVYYCAAYLGRAKGYEYWGQGTQVTVSS” here?
Answer: high polyreactivity

Question: Which “polyreactivity (PSR sort gate)” value does the source give for “QVQLVESGRGLVQAGGSLRLSCAASGIIFELYAMGWYRQAPGKEREFVAAINFSDGSTDYADSVKGRFTISRDNAKKTVYLKMNSLKPEDTAVYYCNADSIAYGSIIHGYWGQGTQVTVSS” here?
Answer: low polyreactivity

Question: For “QVQLVESGRGLVQAGGSLRLSCAASGIIFKRYAMGWYRQAPGKERELVATINRDGRTSYADSVKGRFTSSRDNAKNTVYLQMHSLKPEDTAVYYCAATYLLERPTSKHPRYDYWGQGTQVTLSS”, which “polyreactivity (PSR sort gate)” value is on record?
Answer: low polyreactivity

Question: With “QVQLVESGRGLVQAGGSLRLSCAASGITFGDNVMGWYRQAPGKERELVAAISRIGDDTYYADSVKGRFTISRDNAKNTVYLQMNSLKPEDTAVYYCATDYTQRDYYNYGYWGQGTQVTVSS” as the sequence, how does the “polyreactivity (PSR sort gate)” value read?
Answer: low polyreactivity

Question: With “QVQLVESGRGLVQAGGSLRLSCAASGITFGYYAMGWSRQEPGKQSELVAAISFNGASTYYADSVKGRFTISRDNAKNTVYLQMNSMKPVDNAVYYCNRSTSYAQYFDVMDYWGQGTQVTVSS” as the sequence, how does the “polyreactivity (PSR sort gate)” value read?
Answer: low polyreactivity

Question: For “QVQLVESGRGLVQAGGSLRLSCAASGNTLLKNAMGWYRQAPGKERELVAAISSSGGRTYYADSVKGRFTISRDNAKNTVYLQMNSLKQEDTAVYYCAARYPSGYYYWGQGTQVTVSS”, which “polyreactivity (PSR sort gate)” value is on record?
Answer: high polyreactivity

Question: With “QVQLVESGRGLVQAGGSLRLSCAASGRIFSSNAMVWYRQAPGKERELVAAISQGGGSTYYADSVKGRFTISRDNAKITVYLQMNSLIPEDTAVYYCAAETGYSGYDDSAYEYWGQGTQVTVSS” as the sequence, how does the “polyreactivity (PSR sort gate)” value read?
Answer: low polyreactivity

Question: With “QVQLVESGRGLVQAGGSLRLSCAASGRILDSNAMGWDRQAPGKESELVAAITWRGGSTYYADSVKGRFTISRDNAKNTVYLQMNSLKPEDTAVYYCNARWSKTAHTRFGYWGQGTQVTVSS” as the sequence, how does the “polyreactivity (PSR sort gate)” value read?
Answer: low polyreactivity

Question: For “QVQLVESGRGLVQAGGSLRLSCAASGSIFGFYAMGWYREAPGKESELVAAINSGSTNYADSLKGRFTISRDNAKNTVYLQMNSLKPEDTAVYYCNKDKGVQSYVSSDARYNYWGQGTQVTVSS”, which “polyreactivity (PSR sort gate)” value is on record?
Answer: low polyreactivity

Question: With “QVQLVESGRGLVQAGGSLRLSCAASGSIFGTNTMGWYRQAPGKERELVAAISWSGGSTYYADSVKGRFTISRDNAKNSVYLHMNSLKPEDTAVYYCNAVYPSVYPVSTRYYWGQGTQVTVSS” as the sequence, how does the “polyreactivity (PSR sort gate)” value read?
Answer: high polyreactivity

Question: For “QVQLVESGRGLVQAGGSLRLSCAASGSIFNAYAMGWYRQAPGKERELVADISKRTSYADSVKGRFTISRDNAKNTVYLQMNSLKPEDTADYYCAKEVDEPDGYEYDYWGQGTQVTVSS”, which “polyreactivity (PSR sort gate)” value is on record?
Answer: low polyreactivity

Question: Which “polyreactivity (PSR sort gate)” value does the source give for “QVQLVESGRGLVQAGGSLRLSCAASGSIFYNNAMGWYRQAPGKERELVAAIRSTGTRTYYADSVKGRFTISRDNAKNTVYLQMNSLKPEDTAVYYCAVGDYGLWSYDCWGQGTQVTVSS” here?
Answer: low polyreactivity

Question: With “QVQLVESGRGLVQAGGSLRLSCAASGSILSINGMGWYRQAPGKERELVATIDGSDGSTFYADSVKGRFTISRDNAKNSVYLQMNSQKPEDTAVYYCAAENFWQTKEYDYWGQGTQVTVRS” as the sequence, how does the “polyreactivity (PSR sort gate)” value read?
Answer: low polyreactivity

Question: With “QVQLVESGRGLVQAGGSLRLSCAASGSISGGNAMGWYRQAPRKARELVAANDYTDDSTYYADSVKGRFTISRDNAKNTVYLQMNSQKPEDTAVYYCAADAYRAQGDYWGQGTQVTVSS” as the sequence, how does the “polyreactivity (PSR sort gate)” value read?
Answer: low polyreactivity

Question: For “QVQLVESGRGLVQAGGSLRLSCAASGSTFNSYAMGWYRQAPGKERELVAAIRWSGSSTYYADSVKGRFTISRDNAKNTVYLQMNSLKAEDTAVYYCSKGYSYGRPWDIYYYWGQGTQVTVSS”, which “polyreactivity (PSR sort gate)” value is on record?
Answer: low polyreactivity

Question: For “QVQLVESGRGLVQAGGSLRLSCAASGSTFYIYAMGWYRQAPGKERELVAAISTTDGTTYYADSVKGRFTISRDNAKNTVYLQMNSLKPEDTAVYYCAAEWFGSVQPAYDYWGQGTQVTVSS”, which “polyreactivity (PSR sort gate)” value is on record?
Answer: high polyreactivity

Question: For “QVQLVESGRGLVQAGGSLRLSCAASGYTFGYNAMGWYRQAPGKERELVATNSSGRTTTYADSVKGRFTISRDNAKNNVYLQMNSLKPEDNAGYYCATPVYRSSYEYDYWGQGTQVTVSS”, which “polyreactivity (PSR sort gate)” value is on record?
Answer: low polyreactivity

Question: With “QVQLVESGRGLVQAGGSLRLSCAPSGRIFKYYAKGWYRQAPGKERELVATITSGANTNYADSVKGRFTISRDNAKNTVYLQMNSLKPEDTAVYYCNADLDPRDYGFDYWGQGTQVTVSS” as the sequence, how does the “polyreactivity (PSR sort gate)” value read?
Answer: high polyreactivity

Question: Which “polyreactivity (PSR sort gate)” value does the source give for “QVQLVESGRGLVQAGGSLRLSCAPSGSTFGKYAMGWFRQAPGKERELVAASSSGTSTNYADSVKGRFTISRDNAKNTVYLQMNSRKAEDTSVYYCAADSLKRYDDWGQGTQVTVSS” here?
Answer: low polyreactivity

Question: With “QVQLVESGRGLVQAGGSLRLSCAPSGYIFAANAMGWYRQAPGKERELVAAISASGGSTYYADSVKGRFTISRDNAKNTVYLQMNSLKPEDTAVYYCYVVSDSRLYYRYAYDYWGQGTQVTVSS” as the sequence, how does the “polyreactivity (PSR sort gate)” value read?
Answer: high polyreactivity

Question: Which “polyreactivity (PSR sort gate)” value does the source give for “QVQLVESGRGLVQAGGSLRLSCDASGSILRENAMGWSRQAPGKERELVAVITRGGNTYYADSVKGRFTISRDNAKYTFYLQMNSMKREDTAVYYCAAKRRERYGQTYGYWGQGTQVTVSS” here?
Answer: high polyreactivity

Question: With “QVQLVESGRGLVQAGGSLRLSSAASGSTFHQYTMGWYRQAPGKERELVAGITYRGGSTYADSVKGLFTISRDNAKNTVYLQMNSLKPDDTAVYYCNATPDSVRWDYALSVVRYDYWGQGTQVTVSS” as the sequence, how does the “polyreactivity (PSR sort gate)” value read?
Answer: low polyreactivity

Question: With “QVQLVESGRGLVQAGGSLRVSCAASGSILSINGMGWYRQAPGKERELVATIDGSDGSTFYADSVKGRFTISRDNAKNTVYLQMNSLKPEDTAVYYCAAENFWQTKEYDYWGQGTQVTVSS” as the sequence, how does the “polyreactivity (PSR sort gate)” value read?
Answer: low polyreactivity

Question: For “QVQLVESGRGLVQAGGTLRLSCAPYGRTFYPIAMAWYRQAPGKDRELVAAISYSGGSTYYADSVKGRFTISRDNAKNTVYLQMNRLKPEDTAVYDCAAAFSRDSRDLWGQGTQVTVSS”, which “polyreactivity (PSR sort gate)” value is on record?
Answer: low polyreactivity

Question: With “QVQLVESGRGLVQAGVSLRLSCAASGSTFGYYAMGWYRQAPGKERELVAAISYSGGSTYYADSVKGRFTISRDNAKNTVYLQMNSLKQEDTAVYYCAARFTRQMYYWGQGTQVNVSS” as the sequence, how does the “polyreactivity (PSR sort gate)” value read?
Answer: high polyreactivity

Question: For “QVQLVESGRRLVQAGGSLRLSCAASGRTFGFYAMGWYRQAPGKERELVAGITWSGGSTYYADSVKGRFTISRDNAKNTVYLQMNSLKPEDTAVYYCAADVWWYHYLLFDSWGQGTQVTVSS”, which “polyreactivity (PSR sort gate)” value is on record?
Answer: low polyreactivity

Question: With “QVQLVESGSGLVQAGGILRLSCAASGFIFDAYAMGWYRQAPGKERELVAGISIGGRTNYADSVTGRFTISRDNALNTVYLQMTSLKPEDTAVYYCAARNYRYYYGSYYRGPITNYEYWGQGNQVTVSS” as the sequence, how does the “polyreactivity (PSR sort gate)” value read?
Answer: low polyreactivity

Question: With “QVQLVESGVCIVEAGGSLRLSCAASGRSLKVYAMGWYRQAPGKERELVAAISQRGGSTYYADSVKGRFTISRDNAKNSVYLQMNSRKPEDTAVYYCAARYPYQSYLYRFDYWGQGTQVTVSS” as the sequence, how does the “polyreactivity (PSR sort gate)” value read?
Answer: high polyreactivity

Question: For “QVQLVESGVCLVQAGGSLRLICAASGNIFYGYAMGWYRQAPGKESELVAAISTGGSTNYADSVKGRFTISRDNAKNTVYLQMNSLKPVDTAVYYCASDDPQQYGVRQLGYDSWGQVTQVTVSS”, which “polyreactivity (PSR sort gate)” value is on record?
Answer: low polyreactivity

Question: With “QVQLVESGVCLVQAGGSLRLSCAATGFTLSTNALGWYRQEPGKESELVAVISGGDSTSYADSVKGRFTISRDNAKNTVYLQMNSLKPEETAVYYCAKVYRRYTSGYDYWGQGTQVTVSS” as the sequence, how does the “polyreactivity (PSR sort gate)” value read?
Answer: high polyreactivity

Question: For “QVQLVESGVCLVQAGGSLRLSCASSGRIFKIYMGWYRQAPGKERELVAAISSGGRTYYADSVKGRFTISRDNAKNTVYLQMNSLKPEDTAVYYCAAEGTYYFRYPGPEDYDYWGLGTQVTVSS”, which “polyreactivity (PSR sort gate)” value is on record?
Answer: high polyreactivity

Question: Which “polyreactivity (PSR sort gate)” value does the source give for “QVQLVESGVCLVQAGGSLRLSSAASGRTLDQNTMGRYRQAPGKERELVASITYSGGITYYADSVKGRFTISSDNAKNTVYLQMNSLKPEATAVYYCAAQEHGTYDNILGEPLDYWGQGTQVTVSS” here?
Answer: low polyreactivity

Question: Which “polyreactivity (PSR sort gate)” value does the source give for “QVQLVESGVCLVQAGRSLRLSCAASGRTFGYYAMGWYRQAPGKERELVAGITLSGGSTYYADSVKGRFTISRDNAKNTVYLQMNSLKPDDTAVYYCAARRRGRAGRDDYWGQGTQVTVSS” here?
Answer: high polyreactivity

Question: For “QVQLVESGVGIVQAGGSHRLSCAASGRICVRNAMGWYRQAPGKERQLVAAISWSGGTNYADSVKGRFTISRDNAKNTVYLQMNSLKPEDTAVYYCAALSVWSYYTYYYWGQGTQVTVSS”, which “polyreactivity (PSR sort gate)” value is on record?
Answer: high polyreactivity

Question: For “QVQLVESGVGIVQAGGSLRLSCAASGITFWRYAMRWYRQARGKERELVAAINSGGGTKYADSVQGRFTISRDNAKNTDYLQMNSLKPEDTAVYYCAAVSRYGWYDYCGQGTQVTVSS”, which “polyreactivity (PSR sort gate)” value is on record?
Answer: high polyreactivity

Question: Which “polyreactivity (PSR sort gate)” value does the source give for “QVQLVESGVGLDKAGGSLRLISAASGRILWYNAMGLYRQAPGKEREFVARISISTASTYYADSVKGRFTISRDNAKNTVFLQMNSLKPEDTAVYYCAGKPWRTVPYYYWGQGTQVSVSS” here?
Answer: high polyreactivity

Question: For “QVQLVESGVGLDQAGGSLRLSCAASGFTFYSNAMGWYRQAPGKERELVAAITGRGGRTYYADSVKGRFTISRDNAKNTVYLLMNSLKPEDTAVYYCAAVYHVSTWGGRYYFRQGYDYWGQGTQVTVSS”, which “polyreactivity (PSR sort gate)” value is on record?
Answer: high polyreactivity

Question: With “QVQLVESGVGLDQAGGSLRLSCAASGSTFASYAMGWYRQAPGKERELVAAITNGGSTNYADSVKGRFTISRDNAKNTVYLLMNSLKPEDTAVYYCAAYDGFPRRYDYWGQGTQVTVSS” as the sequence, how does the “polyreactivity (PSR sort gate)” value read?
Answer: low polyreactivity

Question: Which “polyreactivity (PSR sort gate)” value does the source give for “QVQLVESGVGLLQAGGSLRLSCAASGFIFSFYAMGWYRQAPGKERELVAGISQSGGRTYYADSVKGRFTISRDNAKNNVFLQMNSLKPEDTAVYYCAAQWYYSLYVSGDYWGQGTQVTVSS” here?
Answer: high polyreactivity

Question: Which “polyreactivity (PSR sort gate)” value does the source give for “QVQLVESGVGLVHAGGSLRLSCAASGITFDHYTMGWYRQAPGKEREFVAAITGSGVRTYYADSVKVRFTISRDNAKNTVYLQMNSLKPEVTAVYYCAAVWRYTGKYWGQGTQVTISS” here?
Answer: high polyreactivity

Question: For “QVQLVESGVGLVHAGGSLRLSCAASGSTFYANTMGWYIQAPGKERELVAAISQSGGSTYYADSVKGRFSISRDNAKNTVYLQMNSLKPEDTAVYYCAARRLPRKERKLYYWGQGTQVTVSS”, which “polyreactivity (PSR sort gate)” value is on record?
Answer: high polyreactivity

Question: Which “polyreactivity (PSR sort gate)” value does the source give for “QVQLVESGVGLVQAGGILRLSCAAYGTFGSYAMGWYRQAPGKERELVASISGTGGDTYYADSVKGRFTISRDNAKNTVYLQMNSLKPEDTAVYDCAARWSRYWYLGSWLYDYWGQGTQVSVSS” here?
Answer: high polyreactivity

Question: Which “polyreactivity (PSR sort gate)” value does the source give for “QVQLVESGVGLVQAGGSHRLSCAASGSILAGNVMGWYRQAPGKERELVAAITRSGTSTYYADSVKGRFTISRDNAKNTVYLQMNSLKPEDTAVYYCNSVRRVGFRGRYTDGYWGQGTQVTVSS” here?
Answer: high polyreactivity
